Measured values from patent publication US20080089860A1, “Therapeutic compositions and methods useful in treating cancer” (priority 2006, published 2008).

Legend:
SHP-1 = target: T1, SHP-1 (Mus musculus, UniProt P29351); assay: In vitro PTPase assay, GST/SHP-1; assay type: biochemical
T1 construct: made in house
Description: In vitro PTPase activities were measured using the commercial protein tyrosine phosphatase assay kit (Upstate Biotechnology, Inc. (“UBI”)) following established procedure known to one of skill in the art. […] Briefly, 0.01 µg of GST/PTPase fusion proteins was incubated in 50 µl of Tris buffer (10 mM Tris, pH 7.4) containing different concentrations of inhibitors or chemicals (0-1,000 µg/ml) at 22° […] 100 µl of Malachite Green solution was added and incubated for 5 minutes, and the absorbance at 660 nm was measured after 5 minutes.
To assess the reversibility of inhibition of SHP-1 by PTPase inhibitors, GST/SHP-1 fusion protein bound on glutathione beads were pre-incubated in cold Tris buffer or Tris buffer containing the PTPase inhibitors at 4° C. for 30 minutes. The beads were then either subjected to in vitro PTPase assays or washed 3 times in Tris buffer then subjected to in vitro PTPase assays.
Briefly, individual PTPases (0.1 µg/reaction) in 50 µL of PTPase buffer (50 mM Tris, pH 7.4) were incubated at 22° C. for 10 minutes or as indicated in the absence or presence of inhibitory compounds. Substrates (0.2 mM phosphotyrosine peptide) were then added and allowed to react at 22° C. for 18 hrs. PTPase activity of individual reactions was measured by adding 100 µL of malachite green solution (UBI) and then quantifying the amounts of free phosphate cleaved by the PTPase from the peptide substrate by spectrometry (OD660 nm). […] Relative PTPase activities were calculated based on the formula: (PTPase activity in the presence of an inhibitory compound/PTPase activity in the absence of the compound)× 100%. To assess the reversibility of PTPase inhibition, GST fusion proteins of the PTPases bound on glutathione beads (Pharmacia) were pre-incubated with cold Tris buffer (50 mM Tris, pH 7.0) or Tris buffer containing the inhibitor at 4° C. for 30 minutes. The beads were then washed three times in cold Tris buffer or not washed prior to subjecting to in vitro PTPase assays.

PRL-3 = target: T2, PRL-3 (Homo sapiens, UniProt O75365); assay: In vitro PTPase assay, recombinant PRL-3; assay type: biochemical; conditions: DiFMUP substrate
T2 construct: made in house; host or cells: E. coli DH5a
Source text: Sodium stibogluconate, suramin, sodium orthovanadate and GST fusion protein of SHP-1 have been described previously (Pathak et al., J. Imumol. 167, 3391 (2001)). Meglumine antimonate was obtained from Aventis. cDNAs of human PRL-1, PRL-2 and PRL-3 coding region were derived by RT-PCR from H9 cells (Safai, et al., Lancet 1, 1438 (1984)) and inserted in frame into the pGEX vector. cDNA of PRL-1R86 was generated by recombinant DNA technique using PRL-1 cDNA as template following established procedures (Jiao, et al., Mol. Cell. Biol. 16, 6985 (1996)). GST fusion proteins of the PRL phosphatases were prepared from DH5a bacteria transformed with the pGEX fusion protein constructs as described previously (Yi, et al., Mol. Cell. Biol. 12, 836 (1992)). cDNAs encoding the PRLs tagged at the N-termini with the Flag epitope (Castrucci, et al., J. Virol. 66, 4647 (1992)) were generated via recombinant DNA technique, sequenced to confirm their identities and cloned into the pBabepuro vector (Yang, et al., Blood 91, 3746 (1998)). Anti-Flag monoclonal antibody (M2, Sigma) was purchased from a commercial source. A synthetic phosphotyrosine peptide (Arg-Arg-Leu-Ile-Glu-Asp-Ala-Gle-Tyr-Al- -a-Ala-Arg-Gly (SEQ ID NO: 3), wherein the tyrosine is phosphorylated; UBI) and DiFMUP (6,8-difluoro-4-methylumbelliferyl phosphate, Molecular Probes) were purchased as substrates for PTPase assays.
In vitro PTPase assays were used to determine the effects of compounds on recombinant PTPases, following established procedures using a synthetic phosphotyrosine peptide or DiFMUP as the substrate (Pathak et al., J. Imumol. 167, 3391 (2001)). Briefly, individual PTPases (0.1 µg/reaction) in 50 µL of PTPase buffer (50 mM Tris, pH 7.4) were incubated at 22° C. for 10 minutes or as indicated in the absence or presence of inhibitory compounds. Substrates (0.2 mM phosphotyrosine peptide) were then added and allowed to react at 22° C. for 18 hrs. PTPase activity of individual reactions was measured by adding 100 µL of malachite green solution (UBI) and then quantifying the amounts of free phosphate cleaved by the PTPase from the peptide substrate by spectrometry (OD660 nm). PTPase assays using DiFMUP as a substrate were conducted following a previously described procedure (Matter, et al., Biochem. Biophys. Res. Comm. 283, 1061 (2001)). Relative PTPase activities were calculated based on the formula: (PTPase activity in the presence of an inhibitory compound/PTPase activity in the absence of the compound)× 100%. To assess the reversibility of PTPase inhibition, GST fusion proteins of the PTPases bound on glutathione beads (Pharmacia) were pre-incubated with cold Tris buffer (50 mM Tris, pH 7.0) or Tris buffer containing the inhibitor at 4° C. for 30 minutes. The beads were then washed three times in cold Tris buffer or not washed prior to subjecting to in vitro PTPase assays.

MKP1 = target: T3, MKP1 (Homo sapiens, UniProt P28562); assay: In vitro PTPase assay, GST/MKP1; assay type: biochemical; conditions: section VII comparison
T3 construct: made in house; host or cells: E. coli DH5a
T3 sequence (P28562 13-367 limits assumed): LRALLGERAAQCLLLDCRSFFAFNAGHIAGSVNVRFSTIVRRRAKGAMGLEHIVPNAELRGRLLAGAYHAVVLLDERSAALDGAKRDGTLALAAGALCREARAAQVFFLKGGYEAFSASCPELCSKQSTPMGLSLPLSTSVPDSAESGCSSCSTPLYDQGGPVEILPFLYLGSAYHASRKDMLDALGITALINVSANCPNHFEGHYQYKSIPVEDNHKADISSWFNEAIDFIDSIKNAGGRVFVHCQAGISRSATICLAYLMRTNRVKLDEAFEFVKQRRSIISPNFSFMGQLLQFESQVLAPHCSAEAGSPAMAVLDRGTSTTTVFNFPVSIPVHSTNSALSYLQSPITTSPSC
Description: In vitro PTPase activities were measured using the commercial protein tyrosine phosphatase assay kit (Upstate Biotechnology, Inc. (“UBI”)) following established procedure known to one of skill in the art. This assay measures the in vitro dephosphorylation of a synthetic phosphotyrosine peptide of the sequence Arg-Arg-Leu-Ile-Glu-Asp-Ala-Gle-T- -yr-Ala-Ala-Arg-Gly, wherein the tyrosine is phosphorylated (SEQ ID NO: 3). Briefly, 0.01 µg of GST/PTPase fusion proteins was incubated in 50 µl of Tris buffer (10 mM Tris, pH 7.4) containing different concentrations of inhibitors or chemicals (0-1,000 µg/ml) at 22° C. for 10 minutes, followed by addition of 0.2 mM of the phosphotyrosine peptide and incubation at 22° C. for 18 hours. 100 µl of Malachite Green solution was added and incubated for 5 minutes, and the absorbance at 660 nm was measured after 5 minutes.
(§1) In vitro PTPase assays were used to determine the effects of levamisole (Sigma), pentamidine (American Pharmaceutical Partners, Inc.), and ketoconazole (Sigma) on recombinant PTPases, following established procedures (Pathak et al., J. Imumol. 167, 3391 (2001); Pathak et al., Leukemia 16, 2285 (2002), Yi et al., J. Immunol. 169, 5978 (2002)) using a synthetic phosphotyrosine peptide or DiFMUP as the substrate as detailed above in section I.A.2.

GSTm8 = assay: In vitro PTPase assay, GSTm8; assay type: biochemical; conditions: 3-4 μg/ml or 10-100 μg/ml
Source text: as §1

[1] = test system: T4, synthetic phosphotyrosine peptide Arg-Arg-Leu-Ile-Glu-Asp-Ala-Gle-Tyr-Ala-Ala-Arg-Gly, wherein the tyrosine is phosphorylated
T4 sequence: RRLIEDAEYAARG

[2] = target: T5, synthetic phosphotyrosine peptide Arg-Arg-Leu-Ile-Glu-Asp-Ala-Gle-Tyr-Ala-Ala-Arg-Gly, wherein the tyrosine is phosphorylated
T5 chain: RRLIEDAEYAARG

T1 sequence (P29351 whole entry): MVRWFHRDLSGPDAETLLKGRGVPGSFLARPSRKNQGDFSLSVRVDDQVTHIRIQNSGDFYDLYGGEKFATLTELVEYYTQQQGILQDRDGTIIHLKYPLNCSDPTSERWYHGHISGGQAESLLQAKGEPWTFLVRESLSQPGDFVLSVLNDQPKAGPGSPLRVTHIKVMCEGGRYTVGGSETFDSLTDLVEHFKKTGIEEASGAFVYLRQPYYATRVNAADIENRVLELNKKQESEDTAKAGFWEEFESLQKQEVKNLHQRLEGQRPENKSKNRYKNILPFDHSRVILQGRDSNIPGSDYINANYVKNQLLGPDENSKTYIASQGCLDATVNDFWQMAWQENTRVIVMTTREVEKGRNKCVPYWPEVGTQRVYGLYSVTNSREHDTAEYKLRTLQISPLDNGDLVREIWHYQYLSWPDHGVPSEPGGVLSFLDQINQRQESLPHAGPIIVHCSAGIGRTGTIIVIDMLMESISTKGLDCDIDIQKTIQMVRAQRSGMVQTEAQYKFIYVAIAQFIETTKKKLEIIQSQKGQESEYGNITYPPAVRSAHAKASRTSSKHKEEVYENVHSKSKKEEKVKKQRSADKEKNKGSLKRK
T2 sequence (O75365 whole entry): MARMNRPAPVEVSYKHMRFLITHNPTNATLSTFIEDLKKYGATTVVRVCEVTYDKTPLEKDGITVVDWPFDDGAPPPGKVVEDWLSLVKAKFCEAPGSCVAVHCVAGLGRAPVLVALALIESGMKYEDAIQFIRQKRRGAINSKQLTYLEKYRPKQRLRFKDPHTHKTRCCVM

Molecule: Cc1ccc(C(=O)Nc2ccc(S(=O)(=O)O)c3cc(S(=O)(=O)O)cc(S(=O)(=O)O)c23)cc1NC(=O)c1cccc(NC(=O)Nc2cccc(C(=O)Nc3cc(C(=O)Nc4ccc(S(=O)(=O)O)c5cc(S(=O)(=O)O)cc(S(=O)(=O)O)c45)ccc3C)c2)c1 [Suramin]
- inhibition of SHP-1 compared with sodium stibogluconate (SHP-1; comparable conditions): less effective
- inhibition of GST/SHP-1 after washing (reversibility) (SHP-1; pre-incubated with inhibitor, beads washed): almost completely removed by the washing process
- inhibition of PRL-3 compared with sodium stibogluconate (PRL-3): less effective

Molecule: c1ccc([C@H]2CN3CCSC3=N2)cc1 [levamisole]
- inhibition of MKP1 (MKP1): substantial inhibition
- inhibitory activity against SHP-1 (SHP-1; 3-4 μg/ml or 10-100 μg/ml): no obvious inhibitory activity
- inhibitory activity against GSTm8 (GSTm8): no obvious inhibitory activity

Molecule: [Na+].[Na+].[Na+].[O]=[V]([O-])([O-])[O-] [sodium orthovanadate]
- inhibition of PRL-3 compared with sodium stibogluconate (PRL-3): less effective

Molecule: GST fusion protein of SHP-1
- PTPase activity against the peptide substrate (660 nm absorbance, malachite green) [1]: 660 nm absorbance approximately 0.6 above background (0.03)

Molecule: GST fusion protein of SHP-2
- PTPase activity against the peptide substrate (660 nm absorbance, malachite green) [1]: 660 nm absorbance approximately 0.6 above background (0.03)

Molecule: GST fusion protein of mitogen-activated protein kinase phosphatase 1 (MKP1)
- PTPase activity against the peptide substrate (660 nm absorbance, malachite green) [1]: 660 nm absorbance approximately 0.6 above background (0.03)

Molecule: GST fusion protein of protein tyrosine phosphatase 1B (PTP1B)
- PTPase activity against the peptide substrate (660 nm absorbance, malachite green) [1]: 660 nm absorbance approximately 0.6 above background (0.03)

B1: GST fusion protein of PRL-1R86 (protein)
chain: MARMNRPAPVEVTYKNMRFLITHNPTNATLNKFIEELKKYGVTTIVRVCEATYDTTLVEKEGIHVLDWPFDDGAPPSNQIVDDWLRLVKIKFREEPGCCIAVHCVAGLGRAPVLVALALIEGGMKYEDAVQFIRQKRRGAFNSKQLLYLEKYRPKMRLRFKDSNGHRNNCCIQ
- in vitro PTPase activity [2]: showed in vitro PTPase activity similar to that of wild type PRL-1

B2: Flag-PRL-1 (protein)
chain: MARMNRPAPVEVTYKNMRFLITHNPTNATLNKFIEELKKYGVTTIVRVCEATYDTTLVEKEGIHVLDWPFDDGAPPSNQIVDDWLSLVKIKFREEPGCCIAVHCVAGLGRAPVLVALALIEGGMKYEDAVQFIRQKRRGAFNSKQLLYLEKYRPKMRLRFKDSNGHRNNCCIQ
- PTPase activity of anti-Flag immunocomplexes (NIH3T3 transfectants) [2]: a markedly higher PTPase activity (about 23 folds) over that of control transfectants
- phosphatase activity of anti-Flag immunocomplexes (WM9 transfectants) [2]: showed phosphatase activities well above the background activity of the vector control cells

B3: Flag-PRL-1R86 (protein)
chain: MARMNRPAPVEVTYKNMRFLITHNPTNATLNKFIEELKKYGVTTIVRVCEATYDTTLVEKEGIHVLDWPFDDGAPPSNQIVDDWLRLVKIKFREEPGCCIAVHCVAGLGRAPVLVALALIEGGMKYEDAVQFIRQKRRGAFNSKQLLYLEKYRPKMRLRFKDSNGHRNNCCIQ
- phosphatase activity of anti-Flag immunocomplexes (WM9 transfectants) [2]: showed phosphatase activities well above the background activity of the vector control cells
